In PMC9171630 (Proceedings of the National Academy of Sciences of the …, 2022):
Where a chain is given by its changes, count along the chain named. Numbers in names are those of the source.

T1: KaiC^E357Q-AA (Synechococcus elongatus PCC 7942, UniProt Q79PF4 1-519, E357Q | S431A | T432A)
T1 sequence: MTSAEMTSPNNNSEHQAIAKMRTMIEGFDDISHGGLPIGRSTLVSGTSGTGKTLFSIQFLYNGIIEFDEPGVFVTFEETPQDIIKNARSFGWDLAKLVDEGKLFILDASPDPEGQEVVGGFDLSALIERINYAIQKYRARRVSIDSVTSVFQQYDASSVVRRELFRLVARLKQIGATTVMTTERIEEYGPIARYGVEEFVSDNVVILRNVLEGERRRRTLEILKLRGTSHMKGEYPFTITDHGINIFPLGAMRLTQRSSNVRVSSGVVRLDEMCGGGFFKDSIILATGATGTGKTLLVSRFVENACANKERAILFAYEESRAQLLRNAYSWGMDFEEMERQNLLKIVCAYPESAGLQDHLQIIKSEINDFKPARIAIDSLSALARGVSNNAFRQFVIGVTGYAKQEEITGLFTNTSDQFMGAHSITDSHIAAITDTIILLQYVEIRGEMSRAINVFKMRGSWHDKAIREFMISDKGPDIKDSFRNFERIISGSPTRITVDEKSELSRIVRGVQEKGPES

T2: KaiB–KaiC-ST complex (preformed for 48 h) ( | Synechococcus elongatus …, UniProt Q79PF5;Q79PF4)
T2 sequence 1: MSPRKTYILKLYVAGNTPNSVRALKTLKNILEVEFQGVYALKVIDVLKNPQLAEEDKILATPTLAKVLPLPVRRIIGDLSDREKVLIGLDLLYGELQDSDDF
T2 sequence 2: T1 sequence with Q357E, A431S, A432T

T3: KaiB–KaiC^Δ505-ST complex (preformed) ( | Synechococcus elongatus …, UniProt Q79PF5;Q79PF4)
T3 sequence 1: T2 sequence 1
T3 sequence 2: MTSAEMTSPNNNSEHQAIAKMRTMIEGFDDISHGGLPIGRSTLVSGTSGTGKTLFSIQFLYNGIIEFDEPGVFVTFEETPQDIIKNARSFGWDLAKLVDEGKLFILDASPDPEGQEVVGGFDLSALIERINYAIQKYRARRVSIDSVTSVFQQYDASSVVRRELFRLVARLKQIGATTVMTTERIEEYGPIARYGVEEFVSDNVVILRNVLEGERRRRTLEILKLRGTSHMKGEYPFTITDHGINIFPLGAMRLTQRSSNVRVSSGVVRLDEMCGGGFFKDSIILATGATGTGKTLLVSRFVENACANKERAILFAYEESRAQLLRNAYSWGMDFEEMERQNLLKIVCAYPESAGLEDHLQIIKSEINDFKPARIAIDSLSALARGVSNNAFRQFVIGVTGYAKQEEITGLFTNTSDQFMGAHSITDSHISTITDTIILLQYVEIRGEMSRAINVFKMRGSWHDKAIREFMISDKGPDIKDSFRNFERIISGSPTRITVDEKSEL

B1: KaiB (natural protein)
chain: T2 sequence 1
B2: S431A/T432A KaiC mutant (KaiC-AA) (enzyme)
chain: T1 sequence with Q357E
B3: KaiA (natural protein)
chain: MLSQIAICIWVESTAILQDCQRALSADRYQLQVCESGEMLLEYAQTHRDQIDCLILVAANPSFRAVVQQLCFEGVVVPAIVVGDRDSEDPDEPAKEQLYHSAELHLGIHQLEQLPYQVDAALAEFLRLAPVETMADHIMLMGANHDPELSSQQRDLAQRLQERLGYLGVYYKRDPDRFLRNLPAYESQKLHQAMQTSYREIVLSYFSPNSNLNQSIDNFVNMAFFADVPVTKVVEIHMELMDEFAKKLRVEGRSEDILLDYRLTLIDVIAHLCEMYRRSIPRET

Tests used:
KaiA = biological target: B3; test: SEC-MALS
KaiC^E357Q-AA = biological target: T1, KaiC^E357Q-AA; test: native gel or EMSA
crystal structure = biological target: the molecule itself; test: crystal structure
[1] = biological target: T2, KaiB–KaiC-ST complex (preformed for 48 …); test: SEC-MALS
[2] = biological target: T3, KaiB–KaiC^Δ505-ST complex (preformed); test: SEC-MALS

## B1
KaiA
  binding result: binds
KaiC^E357Q-AA
  binding result: binds

## B2
Crystal structure
  stoichiometry N: 6

## B3
[1]
  binding result: binds
[2]
  binding result: binds
